Test results: patent publication US20230140293A1

Experiments:
Assay in all cases: cell-based or functional assay
[1] = molecular target: HIV-1 clade C strain 426c Env on Env-pseudotyped virus produced in 293s/GnTI-/- cells (Man5-enrichment) (HIV-1)
[2] = molecular target: CH0505.w4.3 Env, Env-pseudotyped virus produced in 293T cells (HIV-1)
[3] = molecular target: HIV-1 clade C strain 426c Env on Env-pseudotyped virus produced in 293T cells (HIV-1)
[4] = molecular target: HIV-1 426c.TM (N276D/N460D/N463D) Env on Env-pseudotyped virus produced in 293T cells (HIV-1)
[5] = molecular target: HIV-1 Env 426c.SM (N276D), Env-pseudotyped virus produced in 293T cells (HIV-1 clade C strain 426c)
[6] = molecular target: HIV-1 426c.DM (N460D/N463D) Env on Env-pseudotyped virus produced in 293T cells (HIV-1)
[7] = molecular target: CH0505TF.G458Y Env, Env-pseudotyped virus produced in 293S GnTI- cells (Man5-enriched) (HIV-1)
[8] = molecular target: HIV-1 Env 426c.TM (N276D.N460D.N463D), Env-pseudotyped virus produced in 293T cells (HIV-1 clade C strain 426c)
[9] = molecular target: HIV-1 426c.TM (N276D/N460D/N463D) Env on Env-pseudotyped virus produced in 293s/GnTI-/- cells (Man5-enrichment) (HIV-1)
[10] = molecular target: CH0505TF.G458Y Env, Env-pseudotyped virus produced in 293T cells (HIV-1)
[11] = molecular target: CH0505TF Env, Env-pseudotyped virus produced in 293S GnTI- cells (Man5-enriched) (HIV-1)
[12] = molecular target: HIV-1 426c.SM (N276D) Env on Env-pseudotyped virus produced in 293T cells (HIV-1)
[13] = molecular target: HIV-1 Env 426c, Env-pseudotyped virus produced in 293T cells (HIV-1 clade C strain 426c)
[14] = molecular target: CH0505TF.gly4 Env, Env-pseudotyped virus produced in 293S GnTI- cells (Man5-enriched) (HIV-1)
[15] = molecular target: CH0505TF.gly3.197 Env, Env-pseudotyped virus produced in 293T cells (HIV-1)
[16] = molecular target: HIV-1 426c.DM (N460D/N463D) Env on Env-pseudotyped virus produced in 293s/GnTI-/- cells (Man5-enrichment) (HIV-1)
[17] = molecular target: CH0505TF.gly3.461 Env, Env-pseudotyped virus produced in 293T cells (HIV-1)
[18] = molecular target: HIV-1 Env 426c.SM (N276D), Env-pseudotyped virus produced in 293S GnTI- cells (Man5-enriched) (HIV-1 clade C strain 426c)
[19] = molecular target: CH0505TF.gly3.276 Env, Env-pseudotyped virus produced in 293S GnTI- cells (Man5-enriched) (HIV-1)
[20] = molecular target: CH0505TF Env, Env-pseudotyped virus produced in 293T cells (HIV-1)
[21] = molecular target: HIV-1 Env 426c.DM (N460D.N463D), Env-pseudotyped virus produced in 293T cells (HIV-1 clade C strain 426c)
[22] = molecular target: CH0505TF.gly4 Env, Env-pseudotyped virus produced in 293T cells (HIV-1)
[23] = molecular target: HIV-1 Env 426c.TM4 (S278R.G471S.N460D.N463D), Env-pseudotyped virus produced in 293S GnTI- cells (Man5-enriched) (HIV-1 clade C strain 426c)
[24] = molecular target: HIV-1 Env 426c.TM4 (S278R.G471S.N460D.N463D), Env-pseudotyped virus produced in 293T cells (HIV-1 clade C strain 426c)
[25] = molecular target: HIV-1 Env 426c, Env-pseudotyped virus produced in 293S GnTI- cells (Man5-enriched) (HIV-1 clade C strain 426c)
[26] = molecular target: CH0505TF.gly3.461 Env, Env-pseudotyped virus produced in 293S GnTI- cells (Man5-enriched) (HIV-1)
[27] = molecular target: CH0505TF.gly3.276 Env, Env-pseudotyped virus produced in 293T cells (HIV-1)
[28] = molecular target: CH0505TF.gly3.197 Env, Env-pseudotyped virus produced in 293S GnTI- cells (Man5-enriched) (HIV-1)
[29] = molecular target: HIV-1 426c.SM (N276D) Env on Env-pseudotyped virus produced in 293s/GnTI-/- cells (Man5-enrichment) (HIV-1)
[30] = molecular target: HIV-1 Env 426c.TM (N276D.N460D.N463D), Env-pseudotyped virus produced in 293S GnTI- cells (Man5-enriched) (HIV-1 clade C strain 426c)
[31] = molecular target: HIV-1 Env 426c.DM (N460D.N463D), Env-pseudotyped virus produced in 293S GnTI- cells (Man5-enriched) (HIV-1 clade C strain 426c)

| Substance | ID50/IC50 in TZM-bl [1] | IC50 (µg/ml) in TZM-bl [2] | ID50/IC50 in TZM-bl [3] | ID50/IC50 in TZM-bl [4] | IC50 (µg/ml) in TZM-bl [5] | ID50/IC50 in TZM-bl [6] | IC50 (µg/ml) in TZM-bl [7] | IC50 (µg/ml) in TZM-bl [8] | ID50/IC50 in TZM-bl [9] | IC50 (µg/ml) in TZM-bl [10] | IC50 (µg/ml) in TZM-bl [11] | ID50/IC50 in TZM-bl [12] | IC50 (µg/ml) in TZM-bl [13] | IC50 (µg/ml) in TZM-bl [14] | IC50 (µg/ml) in TZM-bl [15] | ID50/IC50 in TZM-bl [16] | IC50 (µg/ml) in TZM-bl [17] | IC50 (µg/ml) in TZM-bl [18] | IC50 (µg/ml) in TZM-bl [19] | IC50 (µg/ml) in TZM-bl [20] | other results |
| --- | --- | --- | --- | --- | --- | --- | --- | --- | --- | --- | --- | --- | --- | --- | --- | --- | --- | --- | --- | --- | --- |
| HJ16 (antibody) | > 25 mg/L | > 25 µg/mL | > 25 mg/L | > 25 mg/L | > 25 µg/mL | > 25 mg/L | > 25 µg/mL | > 25 µg/mL | > 25 mg/L | > 25 µg/mL | > 25 µg/mL | > 25 mg/L | > 25 µg/mL | > 25 µg/mL | > 25 µg/mL | > 25 mg/L | > 25 µg/mL | > 25 µg/mL | > 25 µg/mL | > 25 µg/mL | IC50 (µg/ml) in TZM-bl [21]: > 25 µg/mL; IC50 (µg/ml) in TZM-bl [22]: > 25 µg/mL; IC50 (µg/ml) in TZM-bl [23]: > 25 µg/mL; IC50 (µg/ml) in TZM-bl [24]: > 25 µg/mL; IC50 (µg/ml) in TZM-bl [25]: > 25 µg/mL; IC50 (µg/ml) in TZM-bl [26]: > 25 µg/mL; IC50 (µg/ml) in TZM-bl [27]: > 25 µg/mL; IC50 (µg/ml) in TZM-bl [28]: > 25 µg/mL; ID50/IC50 in TZM-bl [29]: > 25 mg/L; IC50 (µg/ml) in TZM-bl [30]: > 25 µg/mL; IC50 (µg/ml) in TZM-bl [31]: > 25 µg/mL |
| PG9 (antibody) | > 5 mg/L | 1.8 µg/mL | > 5 mg/L | > 5 mg/L | > 5 µg/mL | > 5 mg/L | 0.04 µg/mL | > 5 µg/mL | > 5 mg/L | 0.1 µg/mL | 0.11 µg/mL | > 5 mg/L | > 5 µg/mL | 0.02 µg/mL | 0.24 µg/mL | > 5 mg/L | 0.22 µg/mL | > 5 µg/mL | 0.04 µg/mL | 0.19 µg/mL | IC50 (µg/ml) in TZM-bl [21]: > 5 µg/mL; IC50 (µg/ml) in TZM-bl [22]: 0.21 µg/mL; IC50 (µg/ml) in TZM-bl [23]: > 5 µg/mL; IC50 (µg/ml) in TZM-bl [24]: > 5 µg/mL; IC50 (µg/ml) in TZM-bl [25]: > 5 µg/mL; IC50 (µg/ml) in TZM-bl [26]: 0.05 µg/mL; IC50 (µg/ml) in TZM-bl [27]: 0.17 µg/mL; IC50 (µg/ml) in TZM-bl [28]: 0.06 µg/mL; ID50/IC50 in TZM-bl [29]: > 5 mg/L; IC50 (µg/ml) in TZM-bl [30]: > 5 µg/mL; IC50 (µg/ml) in TZM-bl [31]: > 5 µg/mL |
| PG16 (antibody) | > 5 mg/L | 0.03 µg/mL | > 5 mg/L | > 5 mg/L | > 5 µg/mL | > 5 mg/L | 0.01 µg/mL | > 5 µg/mL | > 5 mg/L | 0.03 µg/mL | 0.08 µg/mL | > 5 mg/L | > 5 µg/mL | 0.02 µg/mL | 0.05 µg/mL | > 5 mg/L | 0.1 µg/mL | > 5 µg/mL | 0.02 µg/mL | 0.09 µg/mL | IC50 (µg/ml) in TZM-bl [21]: > 5 µg/mL; IC50 (µg/ml) in TZM-bl [22]: 0.1 µg/mL; IC50 (µg/ml) in TZM-bl [23]: > 5 µg/mL; IC50 (µg/ml) in TZM-bl [24]: > 5 µg/mL; IC50 (µg/ml) in TZM-bl [25]: > 5 µg/mL; IC50 (µg/ml) in TZM-bl [26]: 0.02 µg/mL; IC50 (µg/ml) in TZM-bl [27]: 0.1 µg/mL; IC50 (µg/ml) in TZM-bl [28]: 0.03 µg/mL; ID50/IC50 in TZM-bl [29]: > 5 mg/L; IC50 (µg/ml) in TZM-bl [30]: > 5 µg/mL; IC50 (µg/ml) in TZM-bl [31]: > 5 µg/mL |
